Test results: paper PMC9882641, “Utilizing genetic code expansion to modify N-TIMP2 specificity towards MMP-2, MMP-9, and MMP-14” (Research Square, 2023)

Tests used:
Assay in all cases: enzyme inhibition assay (chromogenic substrate, fit to Morrison's tight binding equation); MMP-2ACT (0.6 nM), MMP-9CAT (3 nM) or MMP-14CAT (1 nM) incubated with 0-25 nM N-TIMP2 variant for 1 h at 37 C in 50 mM HEPES, 10 mM CaCl2, 0.05% Brij-35, 1 mM DTNB, pH 7.5; then 100 uM chromogenic substrate, absorbance at 412 nm; three independent experiments
Details in all cases: both partners purified
[1] = target: T1, activated MMP-2 (MMP-2ACT) (human, UniProt P08253 110-660)
T1 sequence (looked up): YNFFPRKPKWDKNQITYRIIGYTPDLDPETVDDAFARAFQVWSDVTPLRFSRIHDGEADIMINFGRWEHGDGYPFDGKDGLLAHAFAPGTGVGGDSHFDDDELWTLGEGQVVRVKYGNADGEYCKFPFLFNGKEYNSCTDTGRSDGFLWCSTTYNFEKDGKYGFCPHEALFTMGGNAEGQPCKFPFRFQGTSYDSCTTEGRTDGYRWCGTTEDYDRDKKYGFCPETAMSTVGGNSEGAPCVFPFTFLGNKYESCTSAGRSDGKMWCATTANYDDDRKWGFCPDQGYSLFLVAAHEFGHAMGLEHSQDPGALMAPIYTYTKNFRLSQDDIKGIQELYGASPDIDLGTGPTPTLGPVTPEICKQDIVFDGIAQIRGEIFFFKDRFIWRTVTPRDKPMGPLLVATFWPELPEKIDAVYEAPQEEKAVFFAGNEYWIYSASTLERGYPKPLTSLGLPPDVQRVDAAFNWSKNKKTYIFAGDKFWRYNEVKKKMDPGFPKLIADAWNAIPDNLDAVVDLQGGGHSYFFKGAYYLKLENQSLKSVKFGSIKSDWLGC

[2] = target: T2, human MMP-9 catalytic domain (MMP-9CAT) (human, UniProt P14780 107-215; P14780 391-443)
T2 construct: Matrix metalloproteinase 9 (MMP-9), human, catalytic domain, residues 107-215 (first stretch; residues 216-390 left out); Matrix metalloproteinase 9 (MMP-9), human, catalytic domain, residues 391-443 (second stretch)
T2 chain (looked up): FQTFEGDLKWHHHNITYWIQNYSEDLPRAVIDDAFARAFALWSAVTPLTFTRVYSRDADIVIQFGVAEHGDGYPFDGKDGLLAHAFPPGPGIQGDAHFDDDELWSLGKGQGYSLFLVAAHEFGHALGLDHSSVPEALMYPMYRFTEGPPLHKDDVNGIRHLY

[3] = target: T3, human MMP-14 catalytic domain (MMP-14CAT) (human, UniProt P50281 112-292)
T3 construct: Matrix metalloproteinase 14 (MMP-14), human, catalytic domain, residues 112-292

Ki [1]: 0.233 nM
Ki [2]: 0.322 nM
Ki [3]: 0.711 nM
B1: N-TIMP2 (N-terminal domain of TIMP2) (domain or fragment, human, UniProt P16035 27-153, looked up)
chain: CSCSPVHPQQAFCNADVVIRAKAVSEKEVDSGNDIYGNPIKRIQYEIKQIKMFKGPEKDIEFIYTAPSSAVCGVSLDVGGKKEYLIAGKAEGDGKMHITLCDFIVPWDTLSTTQKKSLNHRYQMGCE
notes: numbers count on: the mature protein (Cys1 is the N-terminus); Cloned in the vector pMECS; also called wild-type N-TIMP2; parental N-TIMP2; source: E. coli WK6, periplasmic extract, purified (Ni-NTA)
